# Measured values from US20240181073A1, “Antibody-Drug Conjugates Comprising an Anti-BCMA Antibody” (Sorrento Therapeutics, Inc., priority 2021, published 2024).
# T1: Human BCMA (B Cell Maturation Antigen) (human, UniProt Q02223 1-184)
# T1 sequence: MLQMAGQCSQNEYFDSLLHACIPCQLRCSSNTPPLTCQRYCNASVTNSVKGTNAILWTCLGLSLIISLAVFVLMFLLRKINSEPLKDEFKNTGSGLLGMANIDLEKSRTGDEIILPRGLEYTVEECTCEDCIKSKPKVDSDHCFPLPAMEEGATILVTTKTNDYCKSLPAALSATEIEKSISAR
# Assays:
# [1] = molecular target: T1, Human BCMA (B Cell Maturation Antigen); experiment: cell-based or functional assay
# BCMA-negative K562 = experiment: In vitro cytotoxicity assay (CellTiter-Glo 2.0, 384-well), Example B2; format: cell-based, human; conditions: 5-day assays, FIG. 8
# Experimental: (§1) The in vitro efficacies of ADCs anti-BCMA-Compound 50, anti-BCMA-Compound 51, anti-BCMA-Compound 52, and anti-BCMA-Compound 53, were compared to anti-BCMA-Compound 3. Anti-BCMA-AB1 clone was conjugated with compounds 50, 51, 52, 53 or 3 and the ADCs were evaluated using the following human cancer cell lines: BCMA-negative K562 and BCMA-positive NCI-H929, purchased from the American Type Culture Collection (ATCC; Manassas, VA).
# (§2) Cell Culture Method: The cell lines were cultured in RPMI-1640 medium (Catalog #10-041-CV: Corning) supplemented with 10-20% fetal bovine serum (FBS; Catalog #MT35011CV; Corning) and 1× penicillin-streptomycin (Catalog #30-002-Cl, Corning) and maintained at 37° C. in a 5% C02 humidified environment. Viable cell counts were made by Trypan blue exclusion using a Countess or Countess II automated cell counter.
# (§3) The in vitro assays were performed as follows: All cells were harvested by removal of a portion of the cell culture suspension followed by centrifugation at 300 g for 5 minutes, followed by resuspension in cell culture medium (described above in Cell Culture method), viable cell count (as described above in Cell Culture method), and then seeded into 384-well white wall clear bottom plates (Catalog #3765, Corning) at a density of 2,500 cells/well in growth media. Plates were maintained at 37° C. The outer wells of plates contained medium only and were used for background subtraction for the cell viability assay. Working solutions of test articles were prepared at 2× final concentrations with 5-fold serial dilutions in complete growth medium. Cell treatment was performed in either technical triplicates or duplicates and maintained at 37° C. for 120-hour assay. After treatment, cell viability was determined by CellTiter-Glo 2.0 assay (Catalog #G9243; Promega; Madison, WI, USA) based on the manufacturer's instructions. CellTiter Glo reagent reacts with ATP in metabolically active cells to give a luminescent readout that is directly proportional to the number of viable cells. Briefly, plates were removed from the incubator and equilibrated to room temperature before addition of CellTiter Glo reagent. Luminescence was measured using a Tecan Spark microplate reader (Tecan; Mannedorf, Switzerland).
# (§4) Data Analysis: For Cytotoxicity assays, raw luminescence data was background subtracted with average luminescence from the outer wells containing medium only and normalized to untreated controls using Excel (Microsoft; Albuquerque, NM). Dose-response relationships and EC50 values were determined based on non-linear regression analysis of normalized data fit to a four-parameter logistic equation using GraphPad Prism 8.0.
# BCMA-positive NCI-H929 = experiment: as above; format: cell-based, human; conditions: for effect on NCI-H929 cell viability: 5-day assays, FIG. 8; for EC50 order of magnitude: comparison of linker chemistry among C-lock conjugations
# Experimental: as §1, §2, §3, §4
# NCI-H929 tumor xenograft = experiment: In vivo efficacy, NCI-H929 tumor xenograft in SCID beige mice; set-up: species or system CB17 SCID beige mice; conditions: Experiment IV, FIG. 6
# Experimental: Female CB17 SCID beige mice, 6 weeks of age, were purchased from Charles River Laboratories.
# Human multiple myeloma tumor cell lines NCI-H929 and OPM2 were cultured and expanded in RPMI 1640 medium supplemented with 10% FBS, 100 units/ml of penicillin and 100 μg/ml of streptomycin at 37° C. in a 5% CO2 humidified environment for a period of 2-3 weeks before harvesting for implantation. Cell viability determined by Trypan blue dye exclusion assay was >90% before implantation. 5 million of OPM2 or NCI-H929 cells in 100 μl of PBS—Matrigel 1:1 (v/v) mixture were inoculated to the right upper flank of each mouse by s.c. injection.
# Tumor volume measurement was started at day 14 after tumor cell inoculation and performed twice weekly. The longest longitudinal diameter as length and the widest transverse diameter as width were measured by using a digital caliper. Tumor volume (TV) were then calculated by the formula: TV=[length×(width)^2]/2 and were analyzed in Excel.
# The treatment was started when average tumor size reaches ˜400, 200 and 150 mm^3 for NCI-H929 tumor xenografts in Experiment I, III and IV, respectively, or ˜240 mm^3 for OPM2 tumor xenograft in Experiment I.
# Mice were euthanized when tumor size reached 2000 mm^3.
# After tumor-bearing mice were randomized, anti-BCMA antibody (BCMA-AB1 or BCMA-AB2), anti-BCMA antibody conjugate with Compound 3 (BCMA-AB1-3 or BCMA-AB2-3) or iso-type antibody conjugate with Compound 3 (iso-3) diluted in PBS were administered to mice through i.p. injections. Treatment regimens included 8 mg/kg once, 4 mg/kg Q1W×2 and 2 mg/kg biw×4 of anti-BCMA-AB1 or anti-BCMA-AB1-Compound 3 in Experiment I (FIG. 3); 2 mg/kg biw×4 and 0.67 mg/kg biw×4 of anti-BCMA-AB1 or anti-BCMA-AB1-Compound 3 in Experiment II (FIG. 4); 1, 2, 4, and 8 mg/kg once of anti-BCMA-AB1-Compound 3 or iso-3 in Experiment III (FIG. 5); and 4 mg/kg biw×4 of anti-BCMA-AB2 or 2 and 4 mg/kg biw×4 of anti-BCMA-AB2-Compound 3 in Experiment IV (FIG. 6).
# Raw data of tumor measurements were analyzed in Excel. Tumor growth curves were plotted using GraphPad Prism 8.0 software and values were presented as mean t SEM.
Molecule,"EC50 of cell viability (CellTiter-Glo 2.0), NCI-H929 (BCMA-positive) cells, 120-hour assay [1] [nM]",activity against K562 cells (BCMA-negative K562),effect on NCI-H929 cell viability (BCMA-positive NCI-H929),EC50 order of magnitude (BCMA-positive NCI-H929),also measured
"anti-BCMA-AB1-Compound 50 (antibody, human IgG1, V domains shown, drug-linker Compound 50 on antibody cysteine thiols (C-lock linkage; positions not stated)) VH: EVQLVESGGGLVKPGGSLRLSCAASGFTSSTAWMSWVRQAPGKGLEWVGRIKSKSDGGTTDYAAPVKGRFTISRDDSKNTLFLQMNSLKTEDTAVYYCAKGGGTYGYWGQGTTVTVSS VL: QSVLTQPASVSGSPGQSVTISCTGTSSAHGGHYYVSWYQQHPGKAPKLMIYDVSNRPSGVSNRFSGSKSGNTASLTISGLQAEDEADYYCGSYTSSGSYVFGTGTKLTVL",0.762,,,,
ADC-50 (conjugate) VH: EVQLVESGGGLVKPGGSLRLSCAASGFTSSTAWMSWVRQAPGKGLEWVGRIKSKSDGGTTDYAAPVKGRFTISRDDSKNTLFLQMNSLKTEDTAVYYCAKGGGTYGYWGQGTTVTVSS VL: QSVLTQPASVSGSPGQSVTISCTGTSSAHGGHYYVSWYQQHPGKAPKLMIYDVSNRPSGVSNRFSGSKSGNTASLTISGLQAEDEADYYCGSYTSSGSYVFGTGTKLTVL,,did not show activity,dose-dependently reduced,sub-nanomolar,"decrease in potency, ADC-50 (C-lock linkage) relative to ADC-53 (PFP linkage) (BCMA-positive NCI-H929; NCI-H929): more than 2 fold; EC50 (BCMA-positive NCI-H929; Table 7, 120-hour (5-day) assay, AB1 clone): 0.76 nM"
ADC-51 (conjugate) VH: EVQLVESGGGLVKPGGSLRLSCAASGFTSSTAWMSWVRQAPGKGLEWVGRIKSKSDGGTTDYAAPVKGRFTISRDDSKNTLFLQMNSLKTEDTAVYYCAKGGGTYGYWGQGTTVTVSS VL: QSVLTQPASVSGSPGQSVTISCTGTSSAHGGHYYVSWYQQHPGKAPKLMIYDVSNRPSGVSNRFSGSKSGNTASLTISGLQAEDEADYYCGSYTSSGSYVFGTGTKLTVL,,did not show activity,dose-dependently reduced,single digit nanomolar,
ADC-52 (conjugate) VH: EVQLVESGGGLVKPGGSLRLSCAASGFTSSTAWMSWVRQAPGKGLEWVGRIKSKSDGGTTDYAAPVKGRFTISRDDSKNTLFLQMNSLKTEDTAVYYCAKGGGTYGYWGQGTTVTVSS VL: QSVLTQPASVSGSPGQSVTISCTGTSSAHGGHYYVSWYQQHPGKAPKLMIYDVSNRPSGVSNRFSGSKSGNTASLTISGLQAEDEADYYCGSYTSSGSYVFGTGTKLTVL,,did not show activity,dose-dependently reduced,sub-nanomolar,enhanced potency compared to ADC-3 (BCMA-positive NCI-H929; NCI-H929): ~2 fold
ADC-53 (conjugate) VH: EVQLVESGGGLVKPGGSLRLSCAASGFTSSTAWMSWVRQAPGKGLEWVGRIKSKSDGGTTDYAAPVKGRFTISRDDSKNTLFLQMNSLKTEDTAVYYCAKGGGTYGYWGQGTTVTVSS VL: QSVLTQPASVSGSPGQSVTISCTGTSSAHGGHYYVSWYQQHPGKAPKLMIYDVSNRPSGVSNRFSGSKSGNTASLTISGLQAEDEADYYCGSYTSSGSYVFGTGTKLTVL,,did not show activity,dose-dependently reduced,,
BCMA-AB2-3: Compound 3 conjugated with anti-BCMA antibody clone BCA7-2E1 (AB2) (conjugate) VH: EVQLVESGGGLVKPGGSLRLSCAASGFTSSTAWMSWVRQAPGKGLEWVGRIKSKSDGGTTDYAAPVKGRFTISRDDSKNTLFLQMNSLKTEDTAVYYCAKGGGTYGYWGQGTTVTVSS VL: QSALTQPASVSGSPGQSVTISCTGTSSDGGGHTYVSWYQQHPGKAPKLMIYDVSNRPSWVSNRFSGSKSGNTASLTISGLQAEDEADYYCGSYTSSGSYVFGTGTKLTVL,,,,,"tumor regression / elimination (NCI-H929 tumor xenograft; both regimens): induced dramatic and prolonged tumor regressions and eliminated all tumors in about two weeks after initial treatments; tumor growth (NCI-H929 tumor xenograft; i.p., 2 and 4 mg/kg biw×4): significantly inhibited tumor growth"
"anti-BCMA-AB1-Compound 51 (antibody, human IgG1, V domains shown, drug-linker Compound 51 on antibody cysteine thiols (C-lock linkage; positions not stated)) VH: EVQLVESGGGLVKPGGSLRLSCAASGFTSSTAWMSWVRQAPGKGLEWVGRIKSKSDGGTTDYAAPVKGRFTISRDDSKNTLFLQMNSLKTEDTAVYYCAKGGGTYGYWGQGTTVTVSS VL: QSVLTQPASVSGSPGQSVTISCTGTSSAHGGHYYVSWYQQHPGKAPKLMIYDVSNRPSGVSNRFSGSKSGNTASLTISGLQAEDEADYYCGSYTSSGSYVFGTGTKLTVL",1.93,,,,
"anti-BCMA-AB1-Compound 53 (antibody, human IgG1, V domains shown, drug-linker Compound 53 conjugated to the antibody (PFP linkage; residues not stated)) VH: EVQLVESGGGLVKPGGSLRLSCAASGFTSSTAWMSWVRQAPGKGLEWVGRIKSKSDGGTTDYAAPVKGRFTISRDDSKNTLFLQMNSLKTEDTAVYYCAKGGGTYGYWGQGTTVTVSS VL: QSVLTQPASVSGSPGQSVTISCTGTSSAHGGHYYVSWYQQHPGKAPKLMIYDVSNRPSGVSNRFSGSKSGNTASLTISGLQAEDEADYYCGSYTSSGSYVFGTGTKLTVL",0.398,,,,
"anti-BCMA-AB1-Compound 52 (antibody, human IgG1, V domains shown, drug-linker Compound 52 on antibody cysteine thiols (C-lock linkage; positions not stated)) VH: EVQLVESGGGLVKPGGSLRLSCAASGFTSSTAWMSWVRQAPGKGLEWVGRIKSKSDGGTTDYAAPVKGRFTISRDDSKNTLFLQMNSLKTEDTAVYYCAKGGGTYGYWGQGTTVTVSS VL: QSVLTQPASVSGSPGQSVTISCTGTSSAHGGHYYVSWYQQHPGKAPKLMIYDVSNRPSGVSNRFSGSKSGNTASLTISGLQAEDEADYYCGSYTSSGSYVFGTGTKLTVL",0.169,,,,
